Paper PMC3547835

What was measured:
[1] = biological target: RHDV VP60 P domain fragment (a.a. 228-579), JX/CHA/97 isolate strain (rabbit hemorrhagic disease virus (JX/CHA/97 isolate strain)); assay: crystal structure; P domain (a.a. 228-579) crystals, space group P212121, hanging drop at 289 K, 0.1 M sodium acetate, 1.1 M succinic acid pH 5.5, 1.0% PEG2000MME; 2.0 Å; dimer in the asymmetric unit
[2] = biological target: RHDV major capsid protein VP60 (in the native virion, HYD isolate strain) (rabbit hemorrhagic disease virus (HYD isolate strain)); assay: cryo-EM structure; RHDV virions purified from infected rabbit livers, TNE buffer, vitrified; FEI Titan Krios 300 keV; ~36,000 particles; 6.5 Å overall (FSC 0.5), 5.5 Å in the inner shell; pseudo-atomic model by docking of the S and P crystal structures and MDFF

For “RHDV VP60 P domain fragment (a.a. 228-579), JX/CHA/97 isolate strain (domain or fragment)”, the stoichiometry N [1] was 2.

For “RHDV major capsid protein VP60 (in the native virion, HYD isolate strain) (natural protein)”, the stoichiometry N [2] was 180.
